Residue numbers refer to the chain shown, from its start.
T1: cynomolgus monkey 4-1BB on CHO-K1 cells (cynomolgus monkey)
T1 chain: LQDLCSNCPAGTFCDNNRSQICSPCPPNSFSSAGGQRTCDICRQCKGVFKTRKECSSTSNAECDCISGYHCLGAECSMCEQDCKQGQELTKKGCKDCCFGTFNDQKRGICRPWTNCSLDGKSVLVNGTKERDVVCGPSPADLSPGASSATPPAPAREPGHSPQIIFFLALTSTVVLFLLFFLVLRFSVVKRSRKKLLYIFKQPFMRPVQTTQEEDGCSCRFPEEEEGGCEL

B1: PR001840 (antibody, V domains shown)
VH: EVQLVESGGGLVQPGGSLRLSCAASGFTFSSYWMHWVRQAPGKGLVWVSRINSDGSSTSYADSVQGRFTISRDNAKNTLYLQMNSLRAEDTAVYYCVRKGSSSYYHYSIEDDWGQGTLVTVSS
B2: PR001837 (antibody, V domains shown)
VH: EVQLLESGGGLVQPGGSLRLSCEASGFTFSSYAMSWVRQAPEKGLEWVSSISGSGGSTFYADSVKGRFTISRDNSKNTLYLQMNSLRAEDTAVYYCAKEGTTETDDYHYNMDVWGQGTTVTVSS
B3: PR001842 (antibody, V domains shown)
VH: EVQLLESGGGLVQPGGSLRLSCAASGFTFSSYAMSWGRQAPGKGLEWVSAISGSGGSTYYADSVKGRFTISRDNSKNTLYLHMNSLRAEDTAVYYCAKEKVATTGDYYYDMDVWGQGTTVTVSS
B4: PR001780 (antibody, V domains shown)
VH: EVQLLESGGGLIQPGGSLRLSCAASGFTFSSFAMTWVRQAPGKGLEWVSTISGSGDNTYYADSVKGRFTISRDNSKNTLYLQMNSLRAEDTAVYFCAKEDTAVASDYYYNIDVWGQGTTVTVSS
B5: PR001774 (antibody, V domains shown)
VH: B4 VH with L5V, I12V, G42E, N57T, N74S, T91S, D100A, V103M, N110G, I111V
B6: PR001781 (antibody, V domains shown)
VH: EVQLLESGGGLVQLGGSLRLSCAASGFTFSSYAMTWVRQAPEKGLEWVSSISGSGGNTYYADSVKGRFTISRDNSKNTLYLQMNSLRAEDTAVYYCAKERTGTTGDYYYNVDVWGQGTTVTVSS
B7: PR001775 (antibody, V domains shown)
VH: EVQLLESGGGLVQSGGSLRLSCAASGFTFSSYAMSWVRQAPGKGLEWVSAISGSGGSTDYADSVKGRFTISRDNSTNTLYLQMNSLRAEDTAVYYCAKERAYDYSNYVDFDYWGQGTLVTVSS
B8: PR001768 (antibody, V domains shown)
VH: B6 VH with L14P, S31N, E42G, G56D, N57S, R100G, G105S
B9: PR001771 (antibody, V domains shown)
VH: B6 VH with L14P, S31N, A40P, E42G, N57S, R100G, G105S
B10: PR001776 (antibody, V domains shown)
VH: EVQLLESGGGLVQPGGSLRLSCAASGFTFSSYAMSWVRQAPEKGLEWVSAISSSGGSTYYADSVKGRFTISRDNSKNTLYLQMNSLRAEDTAVYYCAKDGVTTPSYYYYYDMDVWGQGTTVTVSS
B11: PR001758 (antibody, V domains shown)
VH: B6 VH with S31R, G56D, N57D, A61G, K76Q, L79V, Y95F, R100K, T101A
B12: PR001759 (antibody, V domains shown)
VH: EVQLLESGGGLVQPGGSLRLSCAASGFTFSSYAMSWFRQPPETGLQWVSSIGGSGGDTYYADSVKGRFTISRDNSKNTLYLQMNSLRAEDTAVYYCAKEGSNGTDDNYYDVDVWGQGTTVTVSS
B13: PR001760 (antibody, V domains shown)
VH: EVQLVESGGGVVQPGGSLRLSCAASGFTFSNYAMTWVRQAPEKGLEWVSSISGSGVSTYYADSVKGRFTISRDNSKNTLYLQMTRLTAEDTAVYFCAKEGSSETDDHYYNVDVWGQGTTVTVSS
B14: PR007292 (antibody, V domains shown)
VH: EVQLVESGGGLVKPGGSLRLSCAASGFTFSDYYMSWIRQAPGKGLEWVSYISSSGSTIDYADSVKGRFTISRDNAKNSLYLQMNSLRAEDTAVYYCAREREEVAGTLDYDNWGQGTLVTVSS
B15: PR007294 (antibody, V domains shown)
VH: B14 VH with A23V, I37F, S53G, S56T, E102P, Y109F
B16: PR007293 (antibody, V domains shown)
VH: B14 VH with I37F, S52N, D59Y, A61E, D62Y, Y109F, N111Y
B17: PR007296 (antibody, V domains shown)
VH: B14 VH with A23V, I37F, S53G, S56T, E102A, Y109F, L117P
B18: PR007295 (antibody, V domains shown)
VH: EVQLVESGGGLVKPGGSLRLSCAASGFTFSDYYMSWIRQAPGKGLEWVSYISNNGSTIYYADSVKGRFTISRDNAKNSLYLQMNSLRAEDTAVYYCARVRPGGSGNYWDWFDPWGQGTMVTVSS
B19: PR007297 (antibody, V domains shown)
VH: B18 VH with N53R, N54S, M119L
B20: PR007298 (antibody, V domains shown)
VH: B14 VH with I37V, Y80F, Q82E, Y109F
B21: PR007300 (antibody, V domains shown)
VH: B18 VH with A23T, A24T, S35N, I37V, M119P
B22: PR007299 (antibody, V domains shown)
VH: EVQLVESGGGLVKPGGSLRLSCAASGFTFSDYQMSWLRQAPGKGLEWVSYISSSGRTIYYADSVKGRFTISRDNAKNSVSLQMNSLRAEDTAVYYCAREGRFFPGQGTPVTVSS

molecular target: T2, human 4-1BB on CHO-K1 cells (human, UniProt Q07011 24-255); assay: FACS
Target sequence in this assay (Q07011 24-255): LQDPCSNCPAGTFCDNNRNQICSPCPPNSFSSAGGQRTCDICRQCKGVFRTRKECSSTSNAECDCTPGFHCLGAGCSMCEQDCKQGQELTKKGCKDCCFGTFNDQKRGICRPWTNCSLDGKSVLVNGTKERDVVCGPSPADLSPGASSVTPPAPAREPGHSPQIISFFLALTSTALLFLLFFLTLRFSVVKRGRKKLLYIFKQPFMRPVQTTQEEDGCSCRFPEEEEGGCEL

EC50 [nM] | Binder
0.37 | B1
0.386 | B2
0.537 | B3

molecular target: T2, human 4-1BB on CHO-K1 cells; assay: FACS; remark: another data set of the same source

EC50 [nM] | Binder
0.708 | B4
1.27 | B5
0.492 | B6
0.477 | B7
0.846 | B8
0.532 | B9
2.43 | B10

molecular target: T2, human 4-1BB on CHO-K1 cells; assay: FACS; remark: another data set of the same source
Target sequence in this assay (Q07011 24-255): as above

EC50 [nM] | Binder
0.212 | B11
0.274 | B12
0.198 | B13

Molecular target: T1, cynomolgus monkey 4-1BB on CHO-K1 cells
Assay: FACS; FIG. 12J

EC50 [nM] | Binder
4.88 | B14
1.99 | B15
2.1 | B16

Molecular target: T1, cynomolgus monkey 4-1BB on CHO-K1 cells
Assay: FACS; FIG. 12K

EC50 [nM] | Binder
3.28 | B17
11.1 | B18
8.84 | B19

Molecular target: T1, cynomolgus monkey 4-1BB on CHO-K1 cells
Assay: FACS; FIG. 12L

EC50 [nM] | Binder
2.33 | B20
1.94 | B21
118 | B22

molecular target: T2, human 4-1BB on CHO-K1 cells; assay: FACS; FIG. 11K
Target sequence in this assay (Q07011 24-255): as above

EC50 [nM] | Binder
1.81 | B14
1.14 | B15
2.25 | B16

molecular target: T2, human 4-1BB on CHO-K1 cells; assay: FACS; FIG. 11L
Target sequence in this assay (Q07011 24-255): as above

EC50 [nM] | Binder
3.81 | B17
18.9 | B18
11.7 | B19

molecular target: T2, human 4-1BB on CHO-K1 cells; assay: FACS; FIG. 11M
Target sequence in this assay (Q07011 24-255): as above

EC50 [nM] | Binder
3.71 | B20
2.77 | B21
17 | B22

Molecular target: T1, cynomolgus monkey 4-1BB on CHO-K1 cells
Assay: FACS; FIG. 12A

EC50 [nM] | Binder
0.575 | B11
0.788 | B12
0.443 | B13

Molecular target: T1, cynomolgus monkey 4-1BB on CHO-K1 cells
Assay: FACS; FIG. 12C

EC50 [nM] | Binder
6.73 | B5
6.97 | B8
3.77 | B9

Molecular target: T1, cynomolgus monkey 4-1BB on CHO-K1 cells
Assay: FACS; FIG. 12D

EC50 [nM] | Binder
2.99 | B4
3.1 | B6
2.66 | B7
18.1 | B10

Molecular target: T1, cynomolgus monkey 4-1BB on CHO-K1 cells
Assay: FACS; FIG. 12F

EC50 [nM] | Binder
1.25 | B1
1.63 | B2
2.29 | B3

molecular target: T2, human 4-1BB on CHO-K1 cells; assay: FACS blocking of 4-1BBL

IC50 [nM] | Binder
6.33 | B4
~2.12 | B5
2.4 | B7
21.6 | B9
10.9 | B10

molecular target: T2, human 4-1BB on CHO-K1 cells; assay: FACS blocking of 4-1BBL; remark: another data set of the same source
Target sequence in this assay (Q07011 24-255): as above

IC50 [nM] | Binder
3.61 | B11
2.31 | B12
2.05 | B13

molecular target: T2, human 4-1BB on CHO-K1 cells; assay: FACS blocking of 4-1BBL; remark: another data set of the same source

IC50 [nM] | Binder
5.37 | B14
6.61 | B15
11.2 | B16
4.19 | B17
6.7 | B20
16.1 | B18
11.3 | B19
2.87 | B21
23.1 | B22

molecular target: T2, human 4-1BB on CHO-K1 cells; assay: FACS blocking of 4-1BBL; FIG. 14F

IC50 [nM] | Binder
2.58 | B1
1.96 | B2
